Reference: paper PMC4303762, “Identification of PLXDC1 and PLXDC2 as the transmembrane receptors for the multifunctional factor PEDF” (eLife, 2014)

Target: the molecule itself
Experiment: cross-linking; membranes of HEK293 cells transfected with the receptor, in PBS; disulfide bond formation catalysed by 0.5 mM Cu (II) phenanthroline, 5 min; non-reducing and reducing SDS-PAGE, Western blot for the receptor

B1: PLXDC1 in membranes of transfected HEK293 cells (copper phenanthroline crosslinking) (receptor, human, UniProt Q8IUK5 19-500, looked up)
chain: LSPQPGAGHDEGPGSGWAAKGTVRGWNRRARESPGHVSEPDRTQLSQDLGGGTLAMDTLPDNRTRVVEDNHSYYVSRLYGPSEPHSRELWVDVAEANRSQVKIHTILSNTHRQASRVVLSFDFPFYGHPLRQITIATGGFIFMGDVIHRMLTATQYVAPLMANFNPGYSDNSTVVYFDNGTVFVVQWDHVYLQGWEDKGSFTFQAALHHDGRIVFAYKEIPMSVPEISSSQHPVKTGLSDAFMILNPSPDVPESRRRSIFEYHRIELDPSKVTSMSAVEFTPLPTCLQHRSCDACMSSDLTFNCSWCHVLQRCSSGFDRYRQEWMDYGCAQEAEGRMCEDFQDEDHDSASPDTSFSPYDGDLTTTSSSLFIDSLTTEDDTKLNPYAGGDGLQNNLSPKTKGTPVHLGTIVGIVLAVLLVAAIILAGIYINGHPTSNAALFFIERRPHHWPAMKFRSHPDHSTYAEVEPSGHEKEGFMEAEQC
notes: human PLXDC1 with its cytoplasmic tail ending in the conserved cysteine; Detected by a Western blot for the receptor; also called the receptor; source: HEK293, transfected, in membrane preparation
For B1, the “stoichiometry N” value was 2.
